Patent USRE48267E1, “Variants of C-type natriuretic peptide” (priority 2009, dated 2020)
Where a SMILES comes first, the peptide text is derived from it. Bridges are numbered along the chain shown (N, C = ends). Where no end group is shown, it is not given here. [ ]: non-standard residue; d: D form. NMeL = CN[C@@H](CC(C)C)C(=O)O; Tle = CC(C)(C)[C@H](N)C(=O)O

B1: CNP22 (wild-type human CNP-22) (peptide)
peptide: GLSKGCFGLKLDRIGSMSGLGC
B2: CNP22, N-methyl-F7 (methylated amide) (peptide)
peptide: GLSKGCXGLKLDRIGSMSGLGC
modifications: N-methyl-Phe at 7
B3: CNP22, N-methyl-L9 (peptide)
peptide: GLSKGCFG[NMeL]KLDRIGSMSGLGC
modifications: ends and bridges not checked
B4: CNP22, N-methyl-L11 (peptide)
peptide: GLSKGCFGLK[NMeL]DRIGSMSGLGC
modifications: ends and bridges not checked
B5: CNP22, N-methyl-L20 (peptide)
peptide: GLSKGCFGLKLDRIGSMSG[NMeL]GC
modifications: ends and bridges not checked
B6: CNP22, N-methyl-L9, N-methyl-L11 (peptide)
peptide: GLSKGCFG[NMeL]K[NMeL]DRIGSMSGLGC
modifications: ends and bridges not checked
B7: CNP22, N-methyl-L9, N-methyl-L20 (peptide)
peptide: GLSKGCFG[NMeL]KLDRIGSMSG[NMeL]GC
modifications: ends and bridges not checked
B8: CNP22, N-methyl-L9, N-methyl-L11, N-methyl-L20 (peptide)
peptide: GLSKGCFG[NMeL]K[NMeL]DRIGSMSG[NMeL]GC
modifications: ends and bridges not checked
B9: CNP22, D-F7 (D-Phe) (peptide)
peptide: GLSKGCXGLKLDRIGSMSGLGC
modifications: D-Phe at 7
B10: CNP22, 3-chloro-F7 (peptide)
peptide: GLSKGCXGLKLDRIGSMSGLGC
modifications: 3-Cl-Phe at 7
B11: CNP22, t-butyl-G8 (peptide)
peptide: GLSKGCF[Tle]LKLDRIGSMSGLGC
modifications: ends and bridges not checked
B12: D-CNP22 (all D-amino acids) (peptide)
peptide: G[dL][dS][dK]G[dC][dF]G[dL][dK][dL][dD][dR][dI]G[dS][dM][dS]G[dL]G[dC]
modifications: ends and bridges not checked
B13: CNP22, C6-CH2-NH (reduced carbonyl) (peptide)
peptide: GLSKGCFGLKLDRIGSMSGLGC
modifications: ends and bridges not checked; also: backbone C=O of Cys6 reduced to CH2 (C6-CH2-NH isostere)

How the values were obtained:
[1] = target: neutral endopeptidase (NEP) (Homo sapiens, UniProt P08473); test: in vitro; conditions: human, pH 7
Sequence of neutral endopeptidase (NEP) (P08473 whole entry): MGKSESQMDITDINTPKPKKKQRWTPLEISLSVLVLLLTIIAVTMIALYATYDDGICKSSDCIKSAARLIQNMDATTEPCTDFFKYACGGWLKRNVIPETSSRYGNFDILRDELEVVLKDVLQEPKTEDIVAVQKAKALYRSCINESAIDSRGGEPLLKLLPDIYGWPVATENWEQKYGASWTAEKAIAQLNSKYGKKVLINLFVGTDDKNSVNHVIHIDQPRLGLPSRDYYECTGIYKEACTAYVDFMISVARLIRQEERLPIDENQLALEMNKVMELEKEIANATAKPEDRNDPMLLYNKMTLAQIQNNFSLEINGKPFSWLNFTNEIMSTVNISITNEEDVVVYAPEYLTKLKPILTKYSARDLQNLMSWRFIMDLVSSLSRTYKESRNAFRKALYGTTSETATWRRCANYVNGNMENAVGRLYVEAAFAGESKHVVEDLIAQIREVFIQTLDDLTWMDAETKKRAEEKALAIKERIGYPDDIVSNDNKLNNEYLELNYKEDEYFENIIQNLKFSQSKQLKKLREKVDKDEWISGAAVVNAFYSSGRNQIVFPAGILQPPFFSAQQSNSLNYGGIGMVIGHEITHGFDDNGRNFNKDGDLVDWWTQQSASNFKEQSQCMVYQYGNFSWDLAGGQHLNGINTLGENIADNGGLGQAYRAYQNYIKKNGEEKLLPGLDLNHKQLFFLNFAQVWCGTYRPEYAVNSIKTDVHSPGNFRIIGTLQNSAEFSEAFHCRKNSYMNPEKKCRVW
In short: (§1)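 Recombinant human NEP (1 ug/mL final) incubated with 100 uM CNP variant in 0.1 M Tris, pH 7, at 37° C for various times, then quenched with EDTA (10 mM final) and heat. Samples reduced and analysed by HPLC and mass spectrometry. Half-life derived from loss of intact variant over time.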

NPR-B = target: T1, NPR-B (Mus musculus, UniProt Q6VVW5); test: stimulation of cGMP production in NIH3T3 cells; format: cell-based, murine; conditions: normalized to cell number and cGMP production in the presence of 1 uM wtCNP22; for cGMP Response rel. to 1 uM CNP22, 10 nM: NIH3T3 cells exposed to 10 nM peptide; for cGMP Response rel. to 1 uM CNP22, 1 uM: NIH3T3 cells exposed to 1 uM peptide
T1 construct: Murine NIH3T3 cells express endogenously the CNP signaling receptor, NPR-B; endogenous in cells; host or cells: NIH3T3
T1 sequence (Q6VVW5 17-1047): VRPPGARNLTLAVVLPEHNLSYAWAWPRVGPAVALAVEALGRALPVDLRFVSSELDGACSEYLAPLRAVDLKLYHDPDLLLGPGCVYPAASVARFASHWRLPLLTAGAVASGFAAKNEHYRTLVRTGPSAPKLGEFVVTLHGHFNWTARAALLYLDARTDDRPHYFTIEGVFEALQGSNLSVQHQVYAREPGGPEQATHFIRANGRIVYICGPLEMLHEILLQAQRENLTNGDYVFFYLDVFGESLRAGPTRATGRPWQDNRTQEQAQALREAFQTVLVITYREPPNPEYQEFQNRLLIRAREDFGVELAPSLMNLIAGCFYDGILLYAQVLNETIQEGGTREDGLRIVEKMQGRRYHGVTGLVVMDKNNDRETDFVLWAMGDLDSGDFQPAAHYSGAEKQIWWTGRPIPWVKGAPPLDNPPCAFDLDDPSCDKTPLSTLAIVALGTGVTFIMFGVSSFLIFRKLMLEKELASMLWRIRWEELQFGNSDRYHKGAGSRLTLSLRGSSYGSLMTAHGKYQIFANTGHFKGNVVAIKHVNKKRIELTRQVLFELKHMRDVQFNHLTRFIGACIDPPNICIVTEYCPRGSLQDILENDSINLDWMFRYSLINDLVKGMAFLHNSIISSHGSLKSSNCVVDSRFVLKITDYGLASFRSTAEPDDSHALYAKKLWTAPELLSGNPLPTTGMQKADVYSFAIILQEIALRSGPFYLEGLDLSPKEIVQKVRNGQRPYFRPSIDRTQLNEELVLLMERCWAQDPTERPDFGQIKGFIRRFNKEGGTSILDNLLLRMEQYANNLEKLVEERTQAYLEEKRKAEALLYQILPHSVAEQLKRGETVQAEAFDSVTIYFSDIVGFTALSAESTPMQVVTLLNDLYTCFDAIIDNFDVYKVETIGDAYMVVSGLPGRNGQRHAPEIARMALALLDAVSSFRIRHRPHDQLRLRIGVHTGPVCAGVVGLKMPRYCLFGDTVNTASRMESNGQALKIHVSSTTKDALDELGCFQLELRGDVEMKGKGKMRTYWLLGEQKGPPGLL
Method: To determine the functional activity of CNP variants, the production of cGMP was measured in NIH3T3 cells exposed to the CNP variants. Murine NIH3T3 cells express endogenously the CNP signaling receptor, NPR-B, which shares 98% protein sequence identity with human NPR-B. NIH3T3 cells were cultured in high glucose Dulbecco's Modified Eagle Medium supplemented with 10% fetal calf serum and antibiotics at 37° C. with 5% CO2). Twenty four to 48 hours prior to signaling, cells were passaged to 12-well plates with a density of 2-5×10^5 cells per well at the time of the assay. CNP variants were resuspended in 1 mM HCl to a stock concentration of 1 mg/mL (455 uM for wtCNP22) and subsequently diluted to a 30 uM working stock solution with phosphate-buffered saline (PBS). Ten-fold serial dilutions were prepared in phosphate-buffered saline. Culture medium was removed from the cells and replaced with 0.4 mL PBS/Dulbecco's modified Eagle medium (50/50, v/v) containing 0.75 mM isobutylmethylxanine. Plates were incubated at 37° C., 5% CO2 for 15 minutes before addition of 0.2 mL CNP variant in PBS and continued incubation at 37° C. for 15 minutes. Reactions were stopped by the addition of 0.2 mL lysis buffer supplied with the CatchPoint cGMP assay kit (Molecular Devices), and cGMP production was determined with the CatchPoint cGMP Assay (Molecular Devices). All stimulation experiments were performed in duplicate.
Tables 1-4 summarize the ability of CNP variants having backbone or side chain modifications, amino acid substitutions, N-terminal amino acid extensions, and/or N-terminal PEGylation, respectively, to stimulate cGMP production in NIH3T3 cells. In all four tables, the values for cGMP production in NIH3T3 cells exposed to 10 nM or 1 uM CNP variant are normalized to cell number and cGMP production in the presence of 1 uM wtCNP22.

Recombinant human NEP = Recombinant human NEP (Homo sapiens, UniProt P08473); test: in vitro NEP cleavage assay (disappearance of non-cleaved CNP variant); conditions: for NEP Cleavage (t1/2, min): 100 uM peptide, 1 ug/mL NEP, 0.1 M Tris pH 7, 37° C., adjusted t1/2, CNP22 normalized to 80 min
Sequence of Recombinant human NEP (P08473 whole entry): as the sequence (P08473 whole entry) above
In short: as §1

[2] = target: T2, NPR-B (natriuretic peptide receptor B), murine, expressed endogenously on NIH3T3 cells (murine, UniProt Q6VVW5 17-1047); test: cell-based or functional assay
T2 sequence (looked up): T1 sequence (Q6VVW5 17-1047)

Molecule	cGMP response rel. to 1 uM CNP22; 10 nM peptide, NIH3T3 cells [2]	cGMP response rel. to 1 uM CNP22; 1 uM peptide, NIH3T3 cells [2]	further results
CC[C@H](C)[C@@H]1NC(=O)[C@H](CCCNC(=N)N)NC(=O)[C@H](CC(=O)O)NC(=O)[C@H](CC(C)C)NC(=O)[C@H](CCCCN)NC(=O)[C@H](CC(C)C)NC(=O)CNC(=O)[C@H](Cc2ccccc2)NC(=O)[C@@H](NC(=O)CNC(=O)[C@H](CCCCN)NC(=O)[C@H](CO)NC(=O)[C@H](CC(C)C)NC(=O)CNC(=O)CCCC(=O)NCCOCCOCCOCCOCCC(=O)NC(COCCC(=O)NCCOCCOCCOCCOCCOCCOCCOCCOCCOCCOCCOC)(COCCC(=O)NCCOCCOCCOCCOCCOCCOCCOCCOCCOCCOCCOC)COCCC(=O)NCCOCCOCCOCCOCCOCCOCCOCCOCCOCCOCCOC)CSSC[C@@H](C(=O)O)NC(=O)CNC(=O)[C@H](CC(C)C)NC(=O)CNC(=O)[C@H](CO)NC(=O)[C@H](CCSC)NC(=O)[C@H](CO)NC(=O)CNC1=O [PEO4-(PEO12)3(branched)-CNP22]			half-life at 100 uM [1]: > 2.67 h
CC[C@H](C)[C@@H]1NC(=O)[C@H](CCCNC(=N)N)NC(=O)[C@H](CC(=O)O)NC(=O)[C@H](CC(C)C)NC(=O)[C@H](CCCCN)NC(=O)[C@H](CC(C)C)NC(=O)CNC(=O)[C@H](Cc2ccccc2)NC(=O)[C@@H](NC(=O)CNC(=O)[C@H](CCCCN)NC(=O)[C@H](CO)NC(=O)[C@H](CC(C)C)NC(=O)CNC(=O)CCOCCOCCOCCOCCOCCOCCOCCOCCOCCOCCOCCOC)CSSC[C@@H](C(=O)O)NC(=O)CNC(=O)[C@H](CC(C)C)NC(=O)CNC(=O)[C@H](CO)NC(=O)[C@H](CCSC)NC(=O)[C@H](CO)NC(=O)CNC1=O [PEO12-CNP22]			half-life at 100 uM [1]: 2.67 h
CC[C@H](C)[C@@H]1NC(=O)[C@H](CCCNC(=N)N)NC(=O)[C@H](CC(=O)O)NC(=O)[C@H](CC(C)C)NC(=O)[C@H](CCCCN)NC(=O)[C@H](CC(C)C)NC(=O)CNC(=O)[C@H](Cc2ccccc2)NC(=O)[C@@H](NC(=O)CNC(=O)[C@H](CCCNC(=N)N)NC(=O)[C@H](CO)NC(=O)[C@H](CC(C)C)NC(=O)CN)CSSC[C@@H](C(=O)O)NC(=O)CNC(=O)[C@H](CC(C)C)NC(=O)CNC(=O)[C@H](CO)NC(=O)[C@H](CCSC)NC(=O)[C@H](CO)NC(=O)[C@H](CO)NC1=O [Analog BK, CNP22, K4R, G15S] (H-GLSRGCFGLKLDRISSMSGLGC-OH; disulfide 6-22; N-terminus and C-terminus assumed)			cGMP Response rel. to 1 uM CNP22, 10 nM (NPR-B): 13 ± 1; cGMP Response rel. to 1 uM CNP22, 1 uM (NPR-B): 71 ± 11; resistance to NEP cleavage (in words) (Recombinant human NEP): greatest resistance to NEP cleavage; NEP Cleavage (t1/2, min) (Recombinant human NEP): ≥160 min
CC[C@H](C)[C@@H]1NC(=O)[C@H](CCCNC(=N)N)NC(=O)[C@H](CC(=O)O)NC(=O)[C@H](CC(C)C)N(C)C(=O)[C@H](CCCCN)NC(=O)[C@H](CC(C)C)N(C)C(=O)CNC(=O)[C@H](Cc2ccccc2)NC(=O)[C@@H](NC(=O)CNC(=O)[C@H](CCCCN)NC(=O)[C@H](CO)NC(=O)[C@H](CC(C)C)NC(=O)CN)CSSC[C@@H](C(=O)O)NC(=O)CNC(=O)[C@H](CC(C)C)NC(=O)CNC(=O)[C@H](CO)NC(=O)[C@H](CCSC)NC(=O)[C@H](CO)NC(=O)CNC1=O [Analog M, CNP22, N-methyl-L9, N-methyl-L11]			cGMP Response rel. to 1 uM CNP22, 10 nM (NPR-B): 1; cGMP Response rel. to 1 uM CNP22, 1 uM (NPR-B): 11; resistance to NEP cleavage (in words) (Recombinant human NEP): greatest resistance to NEP cleavage; NEP Cleavage (t1/2, min) (Recombinant human NEP): >>160 min
B1	46 rel. to 1 uM CNP22 (100)	100 rel. to 1 uM CNP22 (100)	
B2	2 rel. to 1 uM CNP22 (100)	38 rel. to 1 uM CNP22 (100)	
B3	2 rel. to 1 uM CNP22 (100)	8 rel. to 1 uM CNP22 (100)	
B4	10 rel. to 1 uM CNP22 (100)	51 rel. to 1 uM CNP22 (100)	
B5	2 rel. to 1 uM CNP22 (100)	5 rel. to 1 uM CNP22 (100)	
B6	1 rel. to 1 uM CNP22 (100)	11 rel. to 1 uM CNP22 (100)	
B7	1 rel. to 1 uM CNP22 (100)	1 rel. to 1 uM CNP22 (100)	
B8	18 rel. to 1 uM CNP22 (100)	10 rel. to 1 uM CNP22 (100)	
B9	2 rel. to 1 uM CNP22 (100)	6 rel. to 1 uM CNP22 (100)	
B10	17 rel. to 1 uM CNP22 (100)	93 rel. to 1 uM CNP22 (100)	
B11	2 rel. to 1 uM CNP22 (100)	18 rel. to 1 uM CNP22 (100)	
B12	2 rel. to 1 uM CNP22 (100)	1 rel. to 1 uM CNP22 (100)	
B13	6 rel. to 1 uM CNP22 (100)	66 rel. to 1 uM CNP22 (100)	
